The values below come from patent US20030166587A1 (SIGNAL PHARMACEUTICALS, published 2003).

Non-standard residues stand in square brackets, D forms with d. No end group written: not given here. pS = N[C@@H](COP(=O)(O)O)C(=O)O

For the experiment, the target named is specific IκB E3 ubiquitin ligase activity of HeLa extract. Briefly: cell-based or functional assay.
Consider CKKERLLDDRHD[pS]GLDSMKDEE [ppS32, singly phosphorylated IκBα peptide], for which the “IC50 of inhibition of pIκBα ubiquitination (in vitro ubiquitination assay in HeLa extract)” value came out at 400 µM. For CDDRHD[pS]GLD[pS]M [pp11, doubly phosphorylated IκBα peptide], the “IC50 of inhibition of pIκBα ubiquitination (in vitro ubiquitination assay in HeLa extract)” value amounted to 5 µM.

As for CKKERLLDDRHDSGLD[pS]MKDEE [ppS36, singly phosphorylated IκBα peptide], the “IC50 of inhibition of pIκBα ubiquitination (in vitro ubiquitination assay in HeLa extract)” value was found to be 400 µM. Under CD[pS]GLD[pS]M [pp7, doubly phosphorylated IκBα peptide (minimal size peptide tested)] stands 10 µM; under CDDRHD[pS]GLD[pS]MKDEE [pp15, doubly phosphorylated IκBα peptide], 5 µM.
